The source of these data is patent publication US12590158 (XIYUAN ANJIAN MEDICINE SHANGHAI, dated 2026).

One may read the IC50 as the concentration that inhibits the measured activity by half. Lower therefore signals higher potency. The EC50 is the midpoint of the concentration-response curve. High values mean lower potency in that assay, low ones higher potency in that assay.

Test [1] deals with T1, TrkA extracellular region (33-417) protein comprising human Fc (ACROBiosystems TRA-H5259) (human, UniProt P04629 33-417).
T1 construct: range 33-417; Bought fusion protein; also called human TrkA (33-417); human TrkA extracellular region
T1 sequence (P04629 33-417 limits assumed): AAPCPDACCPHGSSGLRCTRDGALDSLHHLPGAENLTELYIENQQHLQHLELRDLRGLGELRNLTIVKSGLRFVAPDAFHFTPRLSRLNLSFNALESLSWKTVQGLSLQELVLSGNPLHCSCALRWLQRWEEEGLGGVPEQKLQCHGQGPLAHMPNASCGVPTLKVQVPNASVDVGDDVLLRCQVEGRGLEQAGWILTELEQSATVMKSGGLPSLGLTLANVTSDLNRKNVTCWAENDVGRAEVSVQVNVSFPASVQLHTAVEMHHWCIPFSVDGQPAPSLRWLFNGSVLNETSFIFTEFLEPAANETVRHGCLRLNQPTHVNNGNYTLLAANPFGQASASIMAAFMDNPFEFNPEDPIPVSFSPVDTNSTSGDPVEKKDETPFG
In words: competition ELISA, coated TrkA (33-417)-hFc, antibody titrated, competitor biotin-labeled human NGF. The protocol: Each well of a 96-well microtiter plate was coated with 50 ng of TrkA extracellular region (33-417) protein fused to human Fc, washed three times and blocked with 3% BSA for 1 hour. […] Each well was added with 100 μl and incubated at room temperature for 30 minutes. […] Streptavidin-labeled horseradish peroxidase (Streptavidin-HRP, Biolegend, 405210) was added and incubated for 0.5 hours. After washing three times, TMB was added to the plate, and the absorbance at 450 nm was read by a microplate reader after the color development was terminated.
(In an ELISA, binding on a coated surface is turned into a signal by an enzyme label.)

Test [2] has as its target full-length human TrkA expressed on cells (human) (UniProt P04629). In words: cell-based or functional assay.
In test [3] the target is T2, full-length human TrkA expressed on cells (human, UniProt P04629 33-796). The test can be described thus: cell-based or functional assay.
T2 sequence (P04629 33-796): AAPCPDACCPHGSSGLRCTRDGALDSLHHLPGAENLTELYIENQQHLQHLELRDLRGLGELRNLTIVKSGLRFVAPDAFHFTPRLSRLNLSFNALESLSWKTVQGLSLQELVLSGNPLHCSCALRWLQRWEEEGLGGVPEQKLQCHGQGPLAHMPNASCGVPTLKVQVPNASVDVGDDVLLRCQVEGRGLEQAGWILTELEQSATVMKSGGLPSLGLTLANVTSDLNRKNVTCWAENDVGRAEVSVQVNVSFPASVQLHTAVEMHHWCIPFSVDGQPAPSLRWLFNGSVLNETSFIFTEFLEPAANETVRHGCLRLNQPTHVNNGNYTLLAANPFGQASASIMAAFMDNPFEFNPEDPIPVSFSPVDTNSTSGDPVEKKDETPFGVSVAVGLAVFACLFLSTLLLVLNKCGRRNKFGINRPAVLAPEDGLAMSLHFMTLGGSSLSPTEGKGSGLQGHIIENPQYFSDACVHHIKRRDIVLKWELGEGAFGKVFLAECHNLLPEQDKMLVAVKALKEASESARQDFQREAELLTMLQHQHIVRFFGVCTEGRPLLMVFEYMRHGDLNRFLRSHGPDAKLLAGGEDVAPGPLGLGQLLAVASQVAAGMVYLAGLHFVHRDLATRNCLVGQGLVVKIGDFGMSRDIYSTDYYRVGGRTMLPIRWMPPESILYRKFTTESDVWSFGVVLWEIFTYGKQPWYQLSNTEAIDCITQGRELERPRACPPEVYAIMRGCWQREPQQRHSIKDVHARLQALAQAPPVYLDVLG
Test [4] deals with T3, human TrkC expressed on CHO cells (TrkC/CHO, ThermoFisher K1515) (human, UniProt Q16288 32-839).
T3 construct: whole, on cells
T3 sequence (Q16288 32-839): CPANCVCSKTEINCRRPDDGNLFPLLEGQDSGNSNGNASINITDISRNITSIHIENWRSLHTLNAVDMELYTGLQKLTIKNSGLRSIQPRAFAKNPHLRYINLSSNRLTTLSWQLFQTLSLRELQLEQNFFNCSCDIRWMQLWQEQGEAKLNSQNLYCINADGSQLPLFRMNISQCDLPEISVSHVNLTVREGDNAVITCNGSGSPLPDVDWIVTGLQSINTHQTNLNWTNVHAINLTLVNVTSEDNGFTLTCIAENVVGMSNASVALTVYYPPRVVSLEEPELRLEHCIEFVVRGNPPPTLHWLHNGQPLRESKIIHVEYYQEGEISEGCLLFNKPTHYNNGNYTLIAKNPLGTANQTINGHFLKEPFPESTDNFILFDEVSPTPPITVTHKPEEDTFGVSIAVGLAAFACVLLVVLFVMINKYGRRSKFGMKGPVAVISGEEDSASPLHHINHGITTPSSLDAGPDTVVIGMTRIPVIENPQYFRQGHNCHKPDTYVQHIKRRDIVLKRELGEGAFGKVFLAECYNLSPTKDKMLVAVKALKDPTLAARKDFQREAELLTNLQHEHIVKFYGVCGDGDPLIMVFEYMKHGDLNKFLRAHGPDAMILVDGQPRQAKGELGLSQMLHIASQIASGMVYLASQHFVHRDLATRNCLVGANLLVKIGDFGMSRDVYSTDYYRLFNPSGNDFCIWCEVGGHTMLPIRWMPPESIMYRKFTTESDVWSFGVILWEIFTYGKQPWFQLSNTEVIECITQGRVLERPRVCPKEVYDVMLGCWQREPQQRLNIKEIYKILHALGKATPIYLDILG
The test can be described thus: flow cytometry on TrkC/CHO cells. The protocol: (§1) CHO-K1 was used as a negative control. The binding of the humanized antibodies to the four cell lines was detected by flow cytometry.
(§2) The cells were cultured according to the manufacturer's instruction. The cells were harvested in the logarithmic growth phase, re-suspended in flow buffer (PBS+2% FBS, pH 7.4), and added into 96-well plate, 10^5 cells per well (50 µl). 50 µl of 100 µg/mL humanized anti-TrkA antibody was added, incubated at room temperature for 60 min, and centrifuged at 1200 rpm. The supernatant was discarded and the cells were washed 3 times. FITC-labeled goat anti-human Fc antibody (Abeam, ab97224) was diluted to 5 µg/mL with flow buffer and used to re-suspend the cells, incubated at room temperature for 30 min in the dark, centrifuged, and the supernatant was discarded. After washing 3 times, the cells were re-suspended with 7AAD solution (Biolegend, 420403), incubated for 10 min at room temperature, and the binding of the antibody was detected with a flow cytometer (BioRad, ZE5).
For orientation: Flow cytometry measures light scatter and fluorescence of single cells or particles in a stream.

Test [5] concerns the target T2, full-length human TrkA expressed on …. The test can be described thus: cell-based or functional assay. The source holds these as a separate data set.
The target in test [6] is T4, human TrkB expressed on CHO cells (TrkB/CHO, ThermoFisher K1491) (human, UniProt Q16620 32-822).
T4 construct: whole, on cells
T4 sequence (Q16620 32-822): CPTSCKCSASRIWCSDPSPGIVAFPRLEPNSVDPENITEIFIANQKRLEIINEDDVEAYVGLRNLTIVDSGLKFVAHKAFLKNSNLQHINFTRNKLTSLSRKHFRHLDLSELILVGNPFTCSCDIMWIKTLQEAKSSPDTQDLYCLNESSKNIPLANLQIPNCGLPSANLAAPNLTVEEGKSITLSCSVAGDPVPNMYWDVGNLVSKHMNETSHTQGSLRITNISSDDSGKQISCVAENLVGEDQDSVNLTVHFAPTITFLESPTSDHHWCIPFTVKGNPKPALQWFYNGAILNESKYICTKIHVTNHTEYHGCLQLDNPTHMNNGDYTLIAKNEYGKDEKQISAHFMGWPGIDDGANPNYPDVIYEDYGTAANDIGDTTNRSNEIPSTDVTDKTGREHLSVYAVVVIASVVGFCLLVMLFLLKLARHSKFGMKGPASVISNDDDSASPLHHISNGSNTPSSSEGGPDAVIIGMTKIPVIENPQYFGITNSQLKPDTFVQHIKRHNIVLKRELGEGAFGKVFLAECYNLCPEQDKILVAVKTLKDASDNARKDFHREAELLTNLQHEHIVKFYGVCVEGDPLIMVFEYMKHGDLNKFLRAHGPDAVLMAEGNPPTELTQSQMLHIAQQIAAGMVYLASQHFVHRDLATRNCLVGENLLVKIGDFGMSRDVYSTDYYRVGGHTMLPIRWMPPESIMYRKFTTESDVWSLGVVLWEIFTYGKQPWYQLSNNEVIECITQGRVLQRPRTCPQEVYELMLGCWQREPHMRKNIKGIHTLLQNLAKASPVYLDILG
In words: flow cytometry on TrkB/CHO cells. The procedure: as §1, §2

Test [7] deals with T5, human TrkA extracellular region (33-417) protein containing mouse Fc (human, UniProt P04629 33-417).
T5 construct: range 33-417
T5 sequence (P04629 33-417 limits assumed): as the sequence (P04629 33-417 limits assumed) above
In words: ELISA, coated human TrkA (33-417)-mouse Fc, anti-human IgG-HRP. The procedure:
Each well of a 96-well microtiter plate was coated with 50 ng of human TrkA, washed and blocked, then added with serially diluted humanized antibodies, and incubated for 1 hour at room temperature. After washing three times, horseradish peroxidase-conjugated goat anti-human IgG antibody (ThermoFisher, A18817) was added and reacted at room temperature for 1 hour. After washing three time, tetramethylbenzidine (TMB, Biolegend) was added for color development. 1M HCl was used to terminate the color development, and the absorbance values were read at 450 nm with a microplate reader.

Sequence of full-length human TrkA expressed on cells (human) (P04629 33-796): as the sequence (P04629 33-796) above

B1: control antibody BXhVH5VL1 (antibody, V domains shown)
VH: EVKLLESGGGLVQPGGSLRLSCAASGFTFSTYTMSWVRQTPGKRLEWVAYISKGGGSTYYPDTVKGRFTISRDNSKNTLYLQMNSLRAEDTAVYYCARGAMYGNDFFYPMDYWGQGTTVTVSS
VL: EIVLTQSPATLSLSPGERATLSCSASSSVSYMHWYQQKPGQAPRLLIYTTSNLASGIPARFSGSGSGTDFTLTISSLEPEDFAVYYCHQWSSYPWTFGQGTKLEIK
B1: the IC50 in test [1] is > 100 nM. Besides, in test [2], the IC50 of inhibiting NGF-induced TF-1 cell proliferation was > 200 nM, the IC50 of inhibiting NGF-induced TrkA/Ba/F3 cell proliferation is > 200 nM, the inhibition rate for TrkA/Ba/F3 cell proliferation at 40 µg/mL (266.67 nM) is < 50% and the inhibition rate on NGF-induced TF-1 cell proliferation at 40 µg/mL (266.67 nM) was < 40%.

B2: humanized anti-TrkA antibody 42F5-03 (antibody, V domains shown)
VH: QVQLVQSGAEVKKPGASVKVSCKSSGYTFTNYWMHWVRQAPGQGLEWIGEIYPNNGRVNYNEKFKNRATLTVDISISTAYMELSRLRSDDTAVYYCARSRYDPMEDWGQGTTVTVSS
VL: DVQLTQSPSSLSASVGDRVTITCSASSSVGYMHWYQQKPGKAPKRWIYDTSKLASGVPSRFSGSGSGTDYTLTISSLQPEDFATYFCQQWSSIPLTFGQGTRLEIK
notes: VH grafted to human IgG4 heavy chain constant region, VL to human Kappa light chain constant region
Regarding B2, in test [3], the “IC50 of inhibiting NGF-induced TF-1 cell proliferation” value turned out to be 1.43 nM. Further, the binding result in test [4] and in test [6] was “no binding (tested: 50 µl of 100 µg/mL)” in each case. For the same molecule, the “IC50 of inhibiting NGF-induced TrkA/Ba/F3 cell proliferation” value in test [5] worked out at 2.91 nM. For the same molecule, the half-maximal effective concentration (EC50) in test [7] is 0.056 nM.

B3: humanized anti-TrkA antibody 42F5-04 (antibody, V domains shown)
VH: QVQLVQSGAEVKKPGSSVKVSCKSSGYTFTNYWMHWVRQAPGQGLEWIGEIYPNNGRVNYNEKFKNRATLTVDISTSTAYMELSSLRSEDTAVYYCARSRYDPMEDWGQGTTVTVSS
VL: DVQLTQSPSSLSASVGDRVTITCSASSSVGYMHWYQQKPGKAPKRWIYDTSKLASGVPSRFSGSGSGTDYTLTISSLQPEDFATYFCQQWSSIPLTFGQGTRLEIK
notes: as for B2
With B3, the “IC50 of inhibiting NGF-induced TF-1 cell proliferation” value in test [3] was determined as 1.69 nM. The binding result in test [4] and in test [6] was “no binding (tested: 50 µl of 100 µg/mL)” throughout. Further, in test [5], the “IC50 of inhibiting NGF-induced TrkA/Ba/F3 cell proliferation” value came to 3.69 nM. This molecule returned a concentration for a half-maximal effect (EC50) in test [7] of 0.07 nM.
